PMC9927260

Test system: IBV H120 whole virus (target protein not identified) (Infectious bronchitis virus, live vaccine strain H120)
Test: direct ELAA

Sequence	Kd
CACGTCTCTCTATTCGCTCCCTTCGCTAATTGTTCTCTCC [Apt_IBV02]	58.2 nM
CAGACTTTGTTCAGCTCCTCGACTCTTCATTCCCTCCCTT [Apt_IBV03]	109 nM
CCAGTATCATCCCTATCGTAGTCCTCAACAACCCCCTACA [Apt_IBV04]	99.9 nM
CCCCAATCACAGTTAATCCTCGTTCCTATATCTCCCACAC [Apt_IBV01]	99.2 nM
GACTTCCCTCTTTGTGTGTCATTCGGTGTTCTCGCTTTTG [Apt_IBV05]	59.4 nM
